What was measured:
Assay in all cases: flow cytometry, CHO-K1; sub-column 1 of 2
E9A = biological target: T1, E9A
T1 construct: also called hCD27 E9A
T1 receptor: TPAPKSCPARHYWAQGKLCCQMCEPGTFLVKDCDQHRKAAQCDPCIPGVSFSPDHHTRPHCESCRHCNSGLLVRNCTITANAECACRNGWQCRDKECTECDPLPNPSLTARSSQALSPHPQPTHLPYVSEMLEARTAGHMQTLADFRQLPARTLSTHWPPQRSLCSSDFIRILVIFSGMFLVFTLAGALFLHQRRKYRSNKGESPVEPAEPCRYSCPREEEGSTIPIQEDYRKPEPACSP

G16A = biological target: T2, G16A
T2 construct: also called hCD27 G16A
T2 receptor: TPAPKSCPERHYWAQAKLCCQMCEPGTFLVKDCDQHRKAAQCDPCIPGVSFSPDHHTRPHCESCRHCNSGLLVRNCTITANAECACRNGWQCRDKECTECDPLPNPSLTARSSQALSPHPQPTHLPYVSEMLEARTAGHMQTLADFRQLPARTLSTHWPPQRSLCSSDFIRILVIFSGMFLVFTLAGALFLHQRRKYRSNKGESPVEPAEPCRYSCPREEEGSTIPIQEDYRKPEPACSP

Q41A = biological target: T3, Q41A
T3 construct: also called hCD27 Q41A
T3 receptor: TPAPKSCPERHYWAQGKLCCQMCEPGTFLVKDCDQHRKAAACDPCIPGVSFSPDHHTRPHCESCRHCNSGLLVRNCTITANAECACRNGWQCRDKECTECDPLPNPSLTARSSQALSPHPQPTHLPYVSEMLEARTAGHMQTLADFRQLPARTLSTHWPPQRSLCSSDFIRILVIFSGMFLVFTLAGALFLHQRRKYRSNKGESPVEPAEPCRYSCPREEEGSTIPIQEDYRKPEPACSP

F28A = biological target: T4, F28A
T4 construct: also called hCD27 F28A
T4 receptor: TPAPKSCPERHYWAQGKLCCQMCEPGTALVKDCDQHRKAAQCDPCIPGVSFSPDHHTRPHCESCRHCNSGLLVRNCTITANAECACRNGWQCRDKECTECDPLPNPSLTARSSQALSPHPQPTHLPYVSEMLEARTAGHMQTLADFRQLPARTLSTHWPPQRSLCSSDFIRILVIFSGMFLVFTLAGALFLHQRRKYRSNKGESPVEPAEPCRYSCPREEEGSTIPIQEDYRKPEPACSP

V30A = biological target: T5, V30A
T5 construct: also called hCD27 V30A
T5 receptor: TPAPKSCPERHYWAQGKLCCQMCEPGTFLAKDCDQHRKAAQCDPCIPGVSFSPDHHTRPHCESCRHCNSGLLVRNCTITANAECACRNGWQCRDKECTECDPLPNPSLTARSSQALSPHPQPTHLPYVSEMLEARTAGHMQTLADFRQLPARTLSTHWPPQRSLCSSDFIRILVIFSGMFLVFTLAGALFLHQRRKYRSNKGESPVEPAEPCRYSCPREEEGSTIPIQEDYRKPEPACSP

D32A = biological target: T6, D32A
T6 construct: also called hCD27 D32A
T6 receptor: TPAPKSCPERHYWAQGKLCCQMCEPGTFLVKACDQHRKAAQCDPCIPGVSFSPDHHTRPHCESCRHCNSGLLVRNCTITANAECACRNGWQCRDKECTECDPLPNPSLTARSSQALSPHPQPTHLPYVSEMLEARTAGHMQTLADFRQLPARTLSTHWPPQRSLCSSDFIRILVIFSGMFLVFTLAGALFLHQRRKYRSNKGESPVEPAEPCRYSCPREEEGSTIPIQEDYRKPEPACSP

V49A = biological target: T7, V49A
T7 construct: also called hCD27 V49A
T7 receptor: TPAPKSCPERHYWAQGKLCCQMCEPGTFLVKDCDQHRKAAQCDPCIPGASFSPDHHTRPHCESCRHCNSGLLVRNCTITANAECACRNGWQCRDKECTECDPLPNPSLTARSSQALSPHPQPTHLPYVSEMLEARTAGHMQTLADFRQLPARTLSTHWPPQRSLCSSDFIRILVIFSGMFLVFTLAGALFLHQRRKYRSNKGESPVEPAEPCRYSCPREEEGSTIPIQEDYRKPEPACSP

D43A = biological target: T8, D43A
T8 construct: also called hCD27 D43A
T8 receptor: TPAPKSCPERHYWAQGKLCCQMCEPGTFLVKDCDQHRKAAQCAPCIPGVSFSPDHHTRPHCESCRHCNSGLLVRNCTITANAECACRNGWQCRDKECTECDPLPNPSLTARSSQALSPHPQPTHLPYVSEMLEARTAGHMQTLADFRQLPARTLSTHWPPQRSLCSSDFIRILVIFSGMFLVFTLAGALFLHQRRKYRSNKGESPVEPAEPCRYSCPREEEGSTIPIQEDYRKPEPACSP

I46A = biological target: T9, I46A
T9 construct: also called hCD27 I46A
T9 receptor: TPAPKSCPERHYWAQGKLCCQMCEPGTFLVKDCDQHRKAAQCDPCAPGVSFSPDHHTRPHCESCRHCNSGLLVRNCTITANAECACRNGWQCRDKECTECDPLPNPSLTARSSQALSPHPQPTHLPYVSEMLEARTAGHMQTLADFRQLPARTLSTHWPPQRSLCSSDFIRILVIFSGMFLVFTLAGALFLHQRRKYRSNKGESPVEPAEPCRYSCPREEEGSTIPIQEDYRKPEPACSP

R10A = biological target: T10, R10A
T10 construct: also called hCD27 R10A
T10 receptor: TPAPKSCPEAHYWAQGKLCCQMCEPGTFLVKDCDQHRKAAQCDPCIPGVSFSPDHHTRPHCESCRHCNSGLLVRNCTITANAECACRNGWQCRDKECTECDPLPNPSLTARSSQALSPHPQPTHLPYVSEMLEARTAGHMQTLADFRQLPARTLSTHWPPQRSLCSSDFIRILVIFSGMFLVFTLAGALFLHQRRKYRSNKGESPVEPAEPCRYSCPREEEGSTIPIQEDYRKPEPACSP

Molecule: 1A4 (mouse IgG1) (antibody)
- % of WT hCD27 binding (geo mean FITC) (E9A): 98.2%
- % of WT hCD27 binding (geo mean FITC) (G16A): 90.8%
- % of WT hCD27 binding (geo mean FITC) (Q41A): 106%
- % of WT hCD27 binding (geo mean FITC) (F28A): 113%
- % of WT hCD27 binding (geo mean FITC) (V30A): 161%
- % of WT hCD27 binding (geo mean FITC) (D32A): 43.7%
- % of WT hCD27 binding (geo mean FITC) (V49A): 144%
- % of WT hCD27 binding (geo mean FITC) (D43A): 195%
- % of WT hCD27 binding (geo mean FITC) (I46A): 129%
- % of WT hCD27 binding (geo mean FITC) (R10A): 107%

Molecule: 9F4 (mouse IgG2a) (antibody)
- % of WT hCD27 binding (geo mean FITC) (E9A): 96.6%
- % of WT hCD27 binding (geo mean FITC) (G16A): 94.7%
- % of WT hCD27 binding (geo mean FITC) (Q41A): 113%
- % of WT hCD27 binding (geo mean FITC) (F28A): 115%
- % of WT hCD27 binding (geo mean FITC) (V30A): 166%
- % of WT hCD27 binding (geo mean FITC) (D32A): 118%
- % of WT hCD27 binding (geo mean FITC) (V49A): 151%
- % of WT hCD27 binding (geo mean FITC) (D43A): 201%
- % of WT hCD27 binding (geo mean FITC) (I46A): 137%
- % of WT hCD27 binding (geo mean FITC) (R10A): 104%

B1: Antibody hCD27.131A (mouse parental 131A) (antibody, V domains shown)
VH: QIQLVQSGPELKKPGETVKISCKASGYTFTNYGMNWVKQAPGKGLKWMGWINTNTGEPTYAEEFKGRFAFSLETSATTAYLQINNLKNEDTATYFCAREGDAMDYWGQGTSVTVSS
VL: QIVLTQSPAIMSASPGEKVTMTCSASSSVSYMHWYQQKSGTSPKRWIYDTSKLASGVPARFSGSGSGTSYSLTISSMEAEDAATYYCQQWNSYPFTFGSGTKLEIK
notes: mouse IgG1; also called mouse hCD27.131A
- % of WT hCD27 binding (geo mean FITC) (E9A): 96.7%
- % of WT hCD27 binding (geo mean FITC) (G16A): 94.8%
- % of WT hCD27 binding (geo mean FITC) (Q41A): 108%
- % of WT hCD27 binding (geo mean FITC) (F28A): 106%
- % of WT hCD27 binding (geo mean FITC) (V30A): 170%
- % of WT hCD27 binding (geo mean FITC) (D32A): 113%
- % of WT hCD27 binding (geo mean FITC) (V49A): 147%
- % of WT hCD27 binding (geo mean FITC) (D43A): 194%
- % of WT hCD27 binding (geo mean FITC) (I46A): 132%
- % of WT hCD27 binding (geo mean FITC) (R10A): 103%

Reference: patent publication US20190300618A1 (Merck Sharp & Dohme, published 2019)
